Laboratory results taken from patent US5516678.

Tested on: SspI restriction endonuclease (native) (Sphaerotilus sp. ATCC 13925)
Experiment: cleavage_in_vitro
Settings: Mono S fractions, homogeneous; lambda DNA assay stated in D-7

phage lambda DNA
activity: 140000 units/mg
